{
  "source": "the nanobody polyreactivity screen of Harvey et al. (2022)",
  "data": [
    {"experiment": "yeast display, Sf9 membrane polyspecificity reagent, FACS + sequencing; frameworks hold sequencing errors", "method_in_brief": "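Genes from sorted yeast were amplified by colony PCR, read by MiSeq 2 × 250 sequencing and filtered on CDR length. These cells carried a synthetic nanobody library in Saccharomyces cerevisiae BJ5465 and were sorted by FACS into low and high (top ~1%) gates on anti-HA and streptavidin fluorescence. Polyreactivity is labelled according to the gate of origin.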", "values": [
      {"sequence": "QVQLVESGGGLVQAGGSLRLSCAASGSIFRYNAMGWYRQEPGKERELVASINGGGGTYYPDSVKGRFTISRDNAKNTVYLQMNSLKPEDTAVLYCNTVVNSFSYASRFNFYYWGQGSQVTVSS", "polyreactivity (PSR sort gate)": "high polyreactivity"},
      {"sequence": "QVQLVESGGGLVQAGGSLRLSCAASGSIFRYYAMGWYRQAPGKERELVAGITGSTGRTYYADSVKGRFTISRDKAKNTVYLELNSLKPVDTEVYYCSARSRYYEYDYWGQGTQVTVTS", "polyreactivity (PSR sort gate)": "low polyreactivity"},
      {"sequence": "QVQLVESGGGLVQAGGSLRLSCAASGSIFRYYAMGWYRQAPGKERELVAVITRGGSTYYADSVKGRFTISRDNAKNTVYLQMNSLKPEDTAVYYCAADYWPACMDRGYWGQATQVTVSS", "polyreactivity (PSR sort gate)": "low polyreactivity"},
      {"sequence": "QVQLVESGGGLVQAGGSLRLSCAASGSIFSAYAMGWYRQAPGKEREFVAGITSSGGRTYYADSVKGRFTISRDNAKNTVYLQMNSLKPEDTAVYYCAARFYKKDRRAYGYWGQGTQVTVSS", "polyreactivity (PSR sort gate)": "high polyreactivity"},
      {"sequence": "QVQLVESGGGLVQAGGSLRLSCAASGSIFSAYAMGWYRQAPRKEREFVAAITRRGGNTYYADSVKGRFTISRDNAKNTVYLQMNSLKPEDTAVYYCAAGFYYVYVWLGEYWGQGTQVTVSS", "polyreactivity (PSR sort gate)": "low polyreactivity"},
      {"sequence": "QVQLVESGGGLVQAGGSLRLSCAASGSIFSDNAMGWYRQAPGKERELVAGISSGGGTNYADSVKGRFTISRDNAKNTVYLQMNSLKPEDTGVYDCNADQRDGLELDYWGQGTQVTVSS", "polyreactivity (PSR sort gate)": "low polyreactivity"},
      {"sequence": "QVQLVESGGGLVQAGGSLRLSCAASGSIFSDYAMGWYRQAPGKEREFVAAIDSSGSTYYADSVKGRFTISRDNAKNTVYLQMNSLKPEDTAVYYCAADHLLYSVYIYYYWGQGTQVTVSS", "polyreactivity (PSR sort gate)": "low polyreactivity"},
      {"sequence": "QVQLVESGGGLVQAGGSLRLSCAASGSIFSDYAMGWYRQAPGKERELVAAISGTGGGTYYADSVKGRFTISRDNAKNTVYLQMNSLKPEDTAVYYCAADYVFAWWGDYYWGQGTQVTVSS", "polyreactivity (PSR sort gate)": "high polyreactivity"},
      {"sequence": "QVQLVESGGGLVQAGGSLRLSCAASGSIFSDYAMGWYRQAPGKERELVAGISSGGGTTYADSVKGRFTISRDNAKNTVYLQMNSLIPEDTAVYYCNKQDQPVGRSGYPYGYDYWGQGTQVTVSS", "polyreactivity (PSR sort gate)": "low polyreactivity"},
      {"sequence": "QVQLVESGGGLVQAGGSLRLSCAASGSIFSFNAKGWYRQAPGKERELVAAITTSGGSTYYADSVKGRFTISRDNAKNTVYLQMNSLKPEDTAVYYCAAVRPDNSLYEPMDYWGQGTQVTVSS", "polyreactivity (PSR sort gate)": "low polyreactivity"},
      {"sequence": "QVQLVESGGGLVQAGGSLRLSCAASGSIFSFNAMGWYRQAPGKERELVAAISYSGGSTYADSVKGRFTISRDNAKNTVYLHMNSLKPEDTAVYYCAADGLDYSSGGDGYWGQGTQVTVSS", "polyreactivity (PSR sort gate)": "low polyreactivity"},
      {"sequence": "QVQLVESGGGLVQAGGSLRLSCAASGSIFSFYAMGGYRQPPGKEREFVATITYGSGSTHYADSVKGRFTISRDNAKITVYLQLNSLKPEDTAVYYCAAETVRYEWGESPAALFDYWGQGTQVTVSS", "polyreactivity (PSR sort gate)": "low polyreactivity"},
      {"sequence": "QVQLVESGGGLVQAGGSLRLSCAASGSIFSFYAMGWYRQAPGKERELVATISSGDNTNYADSVKGRFTISRDNAKNTVYLQMNSLKPEDTAVYYCAADAWGVDREYDYWGQGTQVTVSS", "polyreactivity (PSR sort gate)": "low polyreactivity"},
      {"sequence": "QVQLVESGGGLVQAGGSLRLSCAASGSIFSFYAMGWYRQAPGKRELVAAISGNGGSTFYADSVKGRFTISRDNAKNTVYLQMNSLKPEDTAVYYCAAYSYRYKYYYWGQGTQVTVSS", "polyreactivity (PSR sort gate)": "high polyreactivity"},
      {"sequence": "QVQLVESGGGLVQAGGSLRLSCAASGSIFSFYMGWYRQAPGKERELVAAISSRGGSTYYADSVKGRFTISRDNAKNTVYLQMISLKPEDTAVYYCAAAGGGKVSYRDYDYWGQGTQVTVSS", "polyreactivity (PSR sort gate)": "high polyreactivity"},
      {"sequence": "QVQLVESGGGLVQAGGSLRLSCAASGSIFSGKAMGWYRQAPGKERELVASINRSGGSTYSADSVKGRFTISRDNAKYTVYLQMNSLKPEDTAVYSCAARRVWLAGYDSWGQGTQVTVSS", "polyreactivity (PSR sort gate)": "low polyreactivity"},
      {"sequence": "QVQLVESGGGLVQAGGSLRLSCAASGSIFSGYAMGWYRQAPGKEREFVAAISSSGGRTYYADSVKGRFTISRDNAKNTVYLQMNSLKPEDTAVYYCNAVSSYGYDYWGQGTQVTVSS", "polyreactivity (PSR sort gate)": "high polyreactivity"},
      {"sequence": "QVQLVESGGGLVQAGGSLRLSCAASGSIFSGYAMGWYRQAPGKERELVAAITGGGSTNYADSVKGRFTISRDNAKNTVYLQMTSLKPEDTAVYYCAAAPVSLPDYGYWGQGTQVTVSS", "polyreactivity (PSR sort gate)": "low polyreactivity"},
      {"sequence": "QVQLVESGGGLVQAGGSLRLSCAASGSIFSGYTMGWYRQAPGKERELVAAITQRGTRTYYADSVKGRFTISRDNAKNTVYLQMNSLKPEDTAVYYCAADSVVVGSPGNDYWGQGTQVTVSS", "polyreactivity (PSR sort gate)": "high polyreactivity"},
      {"sequence": "QVQLVESGGGLVQAGGSLRLSCAASGSIFSHNAMGGYRQAPGKERELVASITGSGGSTYYAASVKGRFTISRDNAKNTVYLQMNSLKPEDTAVYYCAATYYPDVRGMDYWGQGTQVTVSS", "polyreactivity (PSR sort gate)": "low polyreactivity"},
      {"sequence": "QVQLVESGGGLVQAGGSLRLSCAASGSIFSHNAMGWYRQAPGKERELVAAISRSGGSTYYADSVKGRFTISRDNAKNTVYLQMKSLKPEDTAVYYCAVRAYKVSRYYYWGQGSQVTVSS", "polyreactivity (PSR sort gate)": "low polyreactivity"},
      {"sequence": "QVQLVESGGGLVQAGGSLRLSCAASGSIFSINAMGWYRQAPGKERELVAAISWSGGSTYYADSVKGRFTISRDNAKNTVYLQMNSLKPEDTAVYYCAASYWDTEPGYREYDYWGQGTQVTVSS", "polyreactivity (PSR sort gate)": "low polyreactivity"},
      {"sequence": "QVQLVESGGGLVQAGGSLRLSCAASGSIFSINAMVSYRQAPGKERELVAAISASGGSTYYADSVKGRFTISRDFAKITVYLHMNSLKPEDTAVFYCAAEGSPTGYDYWGQGTQVTVSS", "polyreactivity (PSR sort gate)": "low polyreactivity"},
      {"sequence": "QVQLVESGGGLVQAGGSLRLSCAASGSIFSINTMGWYRQAPGKERELVAAITRSGSGTYYADSVKGRFTISRDNAKNTVYLQMNSLKPEDTAVYYCNADDWVGRSLRYDYWGQGTQVTVSS", "polyreactivity (PSR sort gate)": "low polyreactivity"},
      {"sequence": "QVQLVESGGGLVQAGGSLRLSCAASGSIFSKNAMGWYRQAPGKERELVAAITWSGGRTYYADSVKGRFTISRDNAKNTVFLQMNSLKPEDTAVYYCAAVSRVRYYLQTYDSWGQGTQVTVSS", "polyreactivity (PSR sort gate)": "high polyreactivity"},
      {"sequence": "QVQLVESGGGLVQAGGSLRLSCAASGSIFSLNAMGWYRPAPGKERELVAVINRSGTRTYYADSVKGRFTISRDNAKNTVYLQMNSLKPEDTAVYYCNAQPSSGSDAQNEYWGQGTQVTVSS", "polyreactivity (PSR sort gate)": "high polyreactivity"},
      {"sequence": "QVQLVESGGGLVQAGGSLRLSCAASGSIFSLNAMGWYRQAPGKEREFVAASGGGSTYYADSVKGRFTISRDNAKNTVYLQMNSLKPEDCAVYYCAARVLTDELDYWGQGTQVTVSS", "polyreactivity (PSR sort gate)": "low polyreactivity"},
      {"sequence": "QVQLVESGGGLVQAGGSLRLSCAASGSIFSLYAMGWYRQAPGKERELVAAISSSGTSTYYADSVKGRFTISRDNAKNTVYLQMYSLKTEDTAVYYCNAYRRRATYNGDYWGQGTQVTVSS", "polyreactivity (PSR sort gate)": "high polyreactivity"},
      {"sequence": "QVQLVESGGGLVQAGGSLRLSCAASGSIFSLYDMGWYRQAPGKERELVASITWSGGSTDYADSVKGRFTISRDNAKNTVYLQMNSLKPEDTAVYYCAAYSYTSIFDYWGQGTQVTVSS", "polyreactivity (PSR sort gate)": "low polyreactivity"},
      {"sequence": "QVQLVESGGGLVQAGGSLRLSCAASGSIFSLYVMGWYRQAPGKERELGAAITSGGRTNYADSVKGRFTISRDNAKNTVYLLMNSLKPEDTAVYDCAARFPSRYGRYGYWGQGTQVTVSS", "polyreactivity (PSR sort gate)": "high polyreactivity"},
      {"sequence": "QVQLVESGGGLVQAGGSLRLSCAASGSIFSPNAMGWNRQAPGKERELVAAISRRGGRTYYADSVKGRFTISRDNAKNTVYFQMNSLKPEDTAVYYCNAVWYSDTYTNPQYDYWGQGTQVTVSS", "polyreactivity (PSR sort gate)": "high polyreactivity"},
      {"sequence": "QVQLVESGGGLVQAGGSLRLSCAASGSIFSPYAMGWYRQAPGKARELVAVITRSGGRTYYADSVKGRFTISRDNAKNTVYLQMNSLKPEDTAVYYCAATPKSWSSSTRDYWGQGTQVTVSS", "polyreactivity (PSR sort gate)": "high polyreactivity"},
      {"sequence": "QVQLVESGGGLVQAGGSLRLSCAASGSIFSPYAMGWYRQAPGKERELVAAISDRGGSTYYADSVKVRFTISRDNAKNTVYLQMNSLKPEDTAVYYCAARVGYAFRYYYWGQGTQVTVSS", "polyreactivity (PSR sort gate)": "high polyreactivity"},
      {"sequence": "QVQLVESGGGLVQAGGSLRLSCAASGSIFSQNAMGWYRQAPGKERELVAAITSSGGNTYADSVKGRFTISRDNAKNTVYLQMNRLKPEDTAVYYCAAGHLVILNRSEYYYWGQGSQVTVSS", "polyreactivity (PSR sort gate)": "low polyreactivity"},
      {"sequence": "QVQLVESGGGLVQAGGSLRLSCAASGSIFSQYAMGWSRQAPGKERELVAAISSSGDSTNYADSVKGRFTISRDNAKNTVYLQMNSLKPEDTAVYYCAADFDWFIWGYDYWGQGTQVTVSS", "polyreactivity (PSR sort gate)": "low polyreactivity"},
      {"sequence": "QVQLVESGGGLVQAGGSLRLSCAASGSIFSQYAMGWYRQAPGTERDFVAAINWSGGRTRYADSVKGRFTISRDNAKNTVYLQMNSLKPEDTAVYYCAKVYSLYSYSGRYDYWGQGTQVTVSS", "polyreactivity (PSR sort gate)": "high polyreactivity"},
      {"sequence": "QVQLVESGGGLVQAGGSLRLSCAASGSIFSRNAMGWYRQEPGKEREFVAAISYSSGSTYYADSVNGRFTISRDNAKNTVYLQMNSLKPEDTAVYYCAADTTKLQGVEGDYWGQGTQVTVSS", "polyreactivity (PSR sort gate)": "low polyreactivity"},
      {"sequence": "QVQLVESGGGLVQAGGSLRLSCAASGSIFSRYAMGWYRQAPGKERELVAAISWRGVSTYYADSVKGRFTISRDNAKNTVYLQMNSLKPEDTAVYYCAADTGRYLDSNYWGQGTQVTVSS", "polyreactivity (PSR sort gate)": "high polyreactivity"},
      {"sequence": "QVQLVESGGGLVQAGGSLRLSCAASGSIFSRYAMGWYRQAPGNERELVAAITSGGSTKYADSVKGRFTISRDNAKNTVYLQMNSLKPEDTAVYYCNADRRFRKYPFGYWGQGTQVTVSS", "polyreactivity (PSR sort gate)": "high polyreactivity"},
      {"sequence": "QVQLVESGGGLVQAGGSLRLSCAASGSIFSRYTRGWYRQAPGKEWELVASISRRGGRTYYADSVKGRFTISRDNAKNTVYLQMNSPKPEDTAVYYCNARGHGSAVGPFTRVNSWGQGTQVTVSS", "polyreactivity (PSR sort gate)": "high polyreactivity"},
      {"sequence": "QVQLVESGGGLVQAGGSLRLSCAASGSIFSSNAMGWYIQAPGKERELVASIDGGPTTYADSVKGRFTISRDNAKNTVYLQMNSLKPEDTAVYYCNADSLDGPKFDYWGQGTQVTVSS", "polyreactivity (PSR sort gate)": "low polyreactivity"},
      {"sequence": "QVQLVESGGGLVQAGGSLRLSCAASGSIFSSNAMGWYRPAPGKERELVAAISSGGTTNYADSVKGRFTISRDNAKHTVYLQMNSLKPEDTAVYYCAKRGPSRPAEYDYWGQGTQVTVSS", "polyreactivity (PSR sort gate)": "low polyreactivity"},
      {"sequence": "QVQLVESGGGLVQAGGSLRLSCAASGSIFSSNAMGWYRPAPGKERELVAAISWNGGRTYYADSVKGRFTISRDNAKNTVYLQMNSLKPEDTAVYYCATRFYRPRDGLYDYWGQGTQVTVSS", "polyreactivity (PSR sort gate)": "high polyreactivity"}
    ]}
  ]
}
